Measurements: the Human Domainome abundance scans (Beltran et al. 2025)
± gives the uncertainty stated by the source.

B1: Serine/threonine-protein kinase A-Raf, residues 21 to 89; numbered along this chain, P10398 (parent)
chain: VKVYLPNKQRTVVTVRDGMSVYDSLDKALKVRGLNQDCCVVYRLIKGRKTVTAWDTAIAPLDGEELIVE

Variants of: B1
Experiment: abundance fitness (aPCA) (normalised: wild type 0, dead -1); higher = more abundant; growth selection in yeast, the domain comes from the species named
Details: Homo sapiens

Variant | abundance fitness
VKVYLPNKQRTVVTVRDRMSVYDSLDKALKVRGLNQDCCVVYRLIKGRKTVTAWDTAIAPLDGEELIVE | -0.373 ± 0.035
VKVYLPNKQRTVVTVRDTMSVYDSLDKALKVRGLNQDCCVVYRLIKGRKTVTAWDTAIAPLDGEELIVE | -0.405 ± 0.064
VKVYLPNKQRTVVTVRDKMSVYDSLDKALKVRGLNQDCCVVYRLIKGRKTVTAWDTAIAPLDGEELIVE | -0.08 ± 0.08
VKVYLPNKQRTVVTVRDMMSVYDSLDKALKVRGLNQDCCVVYRLIKGRKTVTAWDTAIAPLDGEELIVE | -0.89 ± 0.15
VKVYLPNKQRTVVTVRDAMSVYDSLDKALKVRGLNQDCCVVYRLIKGRKTVTAWDTAIAPLDGEELIVE | -0.513 ± 0.056
VKVYLPNKQRTVVTVRDDMSVYDSLDKALKVRGLNQDCCVVYRLIKGRKTVTAWDTAIAPLDGEELIVE | -0.143 ± 0.2
VKVYLPNKQRTVVTVRDIMSVYDSLDKALKVRGLNQDCCVVYRLIKGRKTVTAWDTAIAPLDGEELIVE | -0.882 ± 0.23
VKVYLPNKQRTVVTVRDQMSVYDSLDKALKVRGLNQDCCVVYRLIKGRKTVTAWDTAIAPLDGEELIVE | -0.305 ± 0.11
VKVYLPNKQRTVVTVRDVMSVYDSLDKALKVRGLNQDCCVVYRLIKGRKTVTAWDTAIAPLDGEELIVE | -0.663 ± 0.064
VKVYLPNKQRTVVTVRDHMSVYDSLDKALKVRGLNQDCCVVYRLIKGRKTVTAWDTAIAPLDGEELIVE | -0.244 ± 0.13
VKVYLPNKQRTVVTVRDPMSVYDSLDKALKVRGLNQDCCVVYRLIKGRKTVTAWDTAIAPLDGEELIVE | -0.659 ± 0.099
VKVYLPNKQRTVVTVRDSMSVYDSLDKALKVRGLNQDCCVVYRLIKGRKTVTAWDTAIAPLDGEELIVE | -0.239 ± 0.053
VKVYLPNKQRTVVTVRDYMSVYDSLDKALKVRGLNQDCCVVYRLIKGRKTVTAWDTAIAPLDGEELIVE | -0.638 ± 0.2
VKVYLPNKQRTVVTVRDFMSVYDSLDKALKVRGLNQDCCVVYRLIKGRKTVTAWDTAIAPLDGEELIVE | -0.651 ± 0.073
VKVYLPNKQRTVVTVRDWMSVYDSLDKALKVRGLNQDCCVVYRLIKGRKTVTAWDTAIAPLDGEELIVE | -0.636 ± 0.11
VKVYLPNKQRTVVTVRDCMSVYDSLDKALKVRGLNQDCCVVYRLIKGRKTVTAWDTAIAPLDGEELIVE | -0.261 ± 0.084
VKVYLPNKQRTVVTVRDEMSVYDSLDKALKVRGLNQDCCVVYRLIKGRKTVTAWDTAIAPLDGEELIVE | -0.25 ± 0.12
VKVYLPNKQRTVVTWRDGMSVYDSLDKALKVRGLNQDCCVVYRLIKGRKTVTAWDTAIAPLDGEELIVE | -0.093 ± 0.054
VKVYLPNKQRTVVTVVDGMSVYDSLDKALKVRGLNQDCCVVYRLIKGRKTVTAWDTAIAPLDGEELIVE | -0.133 ± 0.044
VKVYLPNKQRTVVTVFDGMSVYDSLDKALKVRGLNQDCCVVYRLIKGRKTVTAWDTAIAPLDGEELIVE | -0.169 ± 0.079
VKVYLPNKQRTVVTVPDGMSVYDSLDKALKVRGLNQDCCVVYRLIKGRKTVTAWDTAIAPLDGEELIVE | -0.117 ± 0.063
VKVYLPNKQRTVVTVTDGMSVYDSLDKALKVRGLNQDCCVVYRLIKGRKTVTAWDTAIAPLDGEELIVE | -0.086 ± 0.063
VKVYLPNKQRTVVTVDDGMSVYDSLDKALKVRGLNQDCCVVYRLIKGRKTVTAWDTAIAPLDGEELIVE | -0.106 ± 0.097
VKVYLPNKQRTVVTVHDGMSVYDSLDKALKVRGLNQDCCVVYRLIKGRKTVTAWDTAIAPLDGEELIVE | 0.191 ± 0.081
VKVYLPNKQRTVVTVSDGMSVYDSLDKALKVRGLNQDCCVVYRLIKGRKTVTAWDTAIAPLDGEELIVE | -0.048 ± 0.042
VKVYLPNKQRTVVTVLDGMSVYDSLDKALKVRGLNQDCCVVYRLIKGRKTVTAWDTAIAPLDGEELIVE | -0.072 ± 0.042

Variant | abundance fitness
VKVYLPNKQRTVVTVIDGMSVYDSLDKALKVRGLNQDCCVVYRLIKGRKTVTAWDTAIAPLDGEELIVE | -0.073 ± 0.1
VKVYLPNKQRTVVTVGDGMSVYDSLDKALKVRGLNQDCCVVYRLIKGRKTVTAWDTAIAPLDGEELIVE | -0.108 ± 0.037
VKVYLPNKQRTVVTVMDGMSVYDSLDKALKVRGLNQDCCVVYRLIKGRKTVTAWDTAIAPLDGEELIVE | -0.181 ± 0.082
VKVYLPNKQRTVVTVNDGMSVYDSLDKALKVRGLNQDCCVVYRLIKGRKTVTAWDTAIAPLDGEELIVE | -0.147 ± 0.097
VKVYLPNKQRTVVTVCDGMSVYDSLDKALKVRGLNQDCCVVYRLIKGRKTVTAWDTAIAPLDGEELIVE | -0.028 ± 0.1
VKVYLPNKQRTVVTVKDGMSVYDSLDKALKVRGLNQDCCVVYRLIKGRKTVTAWDTAIAPLDGEELIVE | -0.045 ± 0.052
VKVYLPNKQRTVVTVEDGMSVYDSLDKALKVRGLNQDCCVVYRLIKGRKTVTAWDTAIAPLDGEELIVE | -0.037 ± 0.062
VKVYLPNKQRTVVTVYDGMSVYDSLDKALKVRGLNQDCCVVYRLIKGRKTVTAWDTAIAPLDGEELIVE | 0 ± 0.087
VKVYLPNKQRTVVTVADGMSVYDSLDKALKVRGLNQDCCVVYRLIKGRKTVTAWDTAIAPLDGEELIVE | -0.027 ± 0.045
VKVYLPNKQRTVVTVRDGGSVYDSLDKALKVRGLNQDCCVVYRLIKGRKTVTAWDTAIAPLDGEELIVE | -0.216 ± 0.064
VKVYLPNKQRTVVTVRDGCSVYDSLDKALKVRGLNQDCCVVYRLIKGRKTVTAWDTAIAPLDGEELIVE | -0.091 ± 0.11
VKVYLPNKQRTVVTVRDGPSVYDSLDKALKVRGLNQDCCVVYRLIKGRKTVTAWDTAIAPLDGEELIVE | -0.778 ± 0.1
VKVYLPNKQRTVVTVRDGESVYDSLDKALKVRGLNQDCCVVYRLIKGRKTVTAWDTAIAPLDGEELIVE | -0.013 ± 0.078
VKVYLPNKQRTVVTVRDGRSVYDSLDKALKVRGLNQDCCVVYRLIKGRKTVTAWDTAIAPLDGEELIVE | -0.218 ± 0.032
VKVYLPNKQRTVVTVRDGHSVYDSLDKALKVRGLNQDCCVVYRLIKGRKTVTAWDTAIAPLDGEELIVE | -0.491 ± 0.4
VKVYLPNKQRTVVTVRDGQSVYDSLDKALKVRGLNQDCCVVYRLIKGRKTVTAWDTAIAPLDGEELIVE | 0.011 ± 0.08
VKVYLPNKQRTVVTVRDGASVYDSLDKALKVRGLNQDCCVVYRLIKGRKTVTAWDTAIAPLDGEELIVE | -0.17 ± 0.062
VKVYLPNKQRTVVTVRDGWSVYDSLDKALKVRGLNQDCCVVYRLIKGRKTVTAWDTAIAPLDGEELIVE | -0.053 ± 0.05
VKVYLPNKQRTVVTVRDGDSVYDSLDKALKVRGLNQDCCVVYRLIKGRKTVTAWDTAIAPLDGEELIVE | -0.09 ± 0.14
VKVYLPNKQRTVVTVRDGYSVYDSLDKALKVRGLNQDCCVVYRLIKGRKTVTAWDTAIAPLDGEELIVE | -0.352 ± 0.18
VKVYLPNKQRTVVTVRDGVSVYDSLDKALKVRGLNQDCCVVYRLIKGRKTVTAWDTAIAPLDGEELIVE | -0.057 ± 0.057
VKVYLPNKQRTVVTVRDGFSVYDSLDKALKVRGLNQDCCVVYRLIKGRKTVTAWDTAIAPLDGEELIVE | -0.274 ± 0.1
VKVYLPNKQRTVVTVRDGKSVYDSLDKALKVRGLNQDCCVVYRLIKGRKTVTAWDTAIAPLDGEELIVE | -0.223 ± 0.1
VKVYLPNKQRTVVTVRDGTSVYDSLDKALKVRGLNQDCCVVYRLIKGRKTVTAWDTAIAPLDGEELIVE | -0.034 ± 0.071
VKVYLPNKQRTVVTVRDGLSVYDSLDKALKVRGLNQDCCVVYRLIKGRKTVTAWDTAIAPLDGEELIVE | -0.154 ± 0.049
VKVYLPNKQRTVVTVRDGISVYDSLDKALKVRGLNQDCCVVYRLIKGRKTVTAWDTAIAPLDGEELIVE | -0.413 ± 0.11

Variant | abundance fitness
VKVYLPNKQRTVVTVRDGMAVYDSLDKALKVRGLNQDCCVVYRLIKGRKTVTAWDTAIAPLDGEELIVE | -0.808 ± 0.14
VKVYLPNKQRTVVTVRDGMDVYDSLDKALKVRGLNQDCCVVYRLIKGRKTVTAWDTAIAPLDGEELIVE | -0.296 ± 0.14
VKVYLPNKQRTVVTVRDGMGVYDSLDKALKVRGLNQDCCVVYRLIKGRKTVTAWDTAIAPLDGEELIVE | -0.94 ± 0.13
VKVYLPNKQRTVVTVRDGMLVYDSLDKALKVRGLNQDCCVVYRLIKGRKTVTAWDTAIAPLDGEELIVE | -0.91 ± 0.093
VKVYLPNKQRTVVTVRDGMMVYDSLDKALKVRGLNQDCCVVYRLIKGRKTVTAWDTAIAPLDGEELIVE | -0.832 ± 0.3
VKVYLPNKQRTVVTVRDGMFVYDSLDKALKVRGLNQDCCVVYRLIKGRKTVTAWDTAIAPLDGEELIVE | -0.844 ± 0.32
VKVYLPNKQRTVVTVRDGMEVYDSLDKALKVRGLNQDCCVVYRLIKGRKTVTAWDTAIAPLDGEELIVE | -0.913 ± 0.25
VKVYLPNKQRTVVTVRDGMNVYDSLDKALKVRGLNQDCCVVYRLIKGRKTVTAWDTAIAPLDGEELIVE | -0.122 ± 0.098
VKVYLPNKQRTVVTVRDGMCVYDSLDKALKVRGLNQDCCVVYRLIKGRKTVTAWDTAIAPLDGEELIVE | -0.31 ± 0.12
VKVYLPNKQRTVVTVRPGMSVYDSLDKALKVRGLNQDCCVVYRLIKGRKTVTAWDTAIAPLDGEELIVE | 0.075 ± 0.057
VKVYLPNKQRTVVTVRCGMSVYDSLDKALKVRGLNQDCCVVYRLIKGRKTVTAWDTAIAPLDGEELIVE | -0.418 ± 0.1
VKVYLPNKQRTVVTVREGMSVYDSLDKALKVRGLNQDCCVVYRLIKGRKTVTAWDTAIAPLDGEELIVE | -0.032 ± 0.067
VKVYLPNKQRTVVTVRGGMSVYDSLDKALKVRGLNQDCCVVYRLIKGRKTVTAWDTAIAPLDGEELIVE | -0.096 ± 0.057
VKVYLPNKQRTVVTVRHGMSVYDSLDKALKVRGLNQDCCVVYRLIKGRKTVTAWDTAIAPLDGEELIVE | -0.279 ± 0.15
VKVYLPNKQRTVVTVRFGMSVYDSLDKALKVRGLNQDCCVVYRLIKGRKTVTAWDTAIAPLDGEELIVE | -0.114 ± 0.15
VKVYLPNKQRTVVTVRKGMSVYDSLDKALKVRGLNQDCCVVYRLIKGRKTVTAWDTAIAPLDGEELIVE | 0.017 ± 0.065
VKVYLPNKQRTVVTVRAGMSVYDSLDKALKVRGLNQDCCVVYRLIKGRKTVTAWDTAIAPLDGEELIVE | 0.039 ± 0.058
VKVYLPNKQRTVVTVRLGMSVYDSLDKALKVRGLNQDCCVVYRLIKGRKTVTAWDTAIAPLDGEELIVE | -0.319 ± 0.047
VKVYLPNKQRTVVTVRMGMSVYDSLDKALKVRGLNQDCCVVYRLIKGRKTVTAWDTAIAPLDGEELIVE | -0.144 ± 0.075
VKVYLPNKQRTVVTVRIGMSVYDSLDKALKVRGLNQDCCVVYRLIKGRKTVTAWDTAIAPLDGEELIVE | -0.221 ± 0.088
VKVYLPNKQRTVVTVRSGMSVYDSLDKALKVRGLNQDCCVVYRLIKGRKTVTAWDTAIAPLDGEELIVE | -0.04 ± 0.058
VKVYLPNKQRTVVTVRQGMSVYDSLDKALKVRGLNQDCCVVYRLIKGRKTVTAWDTAIAPLDGEELIVE | 0 ± 0.06
VKVYLPNKQRTVVTVRTGMSVYDSLDKALKVRGLNQDCCVVYRLIKGRKTVTAWDTAIAPLDGEELIVE | -0.178 ± 0.055
VKVYLPNKQRTVVTVRWGMSVYDSLDKALKVRGLNQDCCVVYRLIKGRKTVTAWDTAIAPLDGEELIVE | -0.304 ± 0.052
VKVYLPNKQRTVVTVRVGMSVYDSLDKALKVRGLNQDCCVVYRLIKGRKTVTAWDTAIAPLDGEELIVE | -0.186 ± 0.065
VKVYLPNKQRTVVTVRYGMSVYDSLDKALKVRGLNQDCCVVYRLIKGRKTVTAWDTAIAPLDGEELIVE | -0.319 ± 0.075
